Laboratory results from the supplement of paper PMC7125110.
± gives the standard error. Variants at the floor of the assay were thinned out.

B1: glmS ribozyme (parent)
chain: AUAAAAGCGCCAGAACUACAGAAAUGUAGUUGACGAGGAGGAGGUUUAUCGAAUUUUCGGCGGAUGCCUCCAAA

Experiments:
Conditions in all cases: with glucosamine-6-phosphate
glucosamine-6-phosphate [1] = variants of: B1; test: self-cleavage kobs at 160 uM GlcN6P; higher = faster cleavage; RNA array
How it was run: (§1)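 In situ transcription by E. coli RNA polymerase produced barcoded ribozyme variants on sequenced MiSeq chips, and a hybridised Cy3 probe tracked them at 37 °C. Glucosamine-6-phosphate was flowed in at 40 μM to 10 mM in HEPES/KCl/Mg(OAc)2 buffer. kcat and KM were taken from weighted Michaelis–Menten fits of kobs values from exponential decay fits.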

glucosamine-6-phosphate [2] = variants of: B1; test: self-cleavage kobs at 640 uM GlcN6P; higher = faster cleavage; RNA array
How it was run: as §1

glucosamine-6-phosphate [3] = variants of: B1; test: self-cleavage kobs at 2500 uM GlcN6P; higher = faster cleavage; RNA array
How it was run: as §1

glucosamine-6-phosphate [4] = variants of: B1; test: self-cleavage kobs at 40 uM GlcN6P; higher = faster cleavage; RNA array
How it was run: as §1

glucosamine-6-phosphate [5] = variants of: B1; test: self-cleavage kobs at 10000 uM GlcN6P; higher = faster cleavage; RNA array
How it was run: as §1

Variant	self-cleavage kobs at 160 uM GlcN6P (glucosamine-6-phosphate [1]) [s⁻¹]	self-cleavage kobs at 640 uM GlcN6P (glucosamine-6-phosphate [2]) [s⁻¹]	self-cleavage kobs at 2500 uM GlcN6P (glucosamine-6-phosphate [3]) [s⁻¹]	self-cleavage kobs at 40 uM GlcN6P (glucosamine-6-phosphate [4]) [s⁻¹]	self-cleavage kobs at 10000 uM GlcN6P (glucosamine-6-phosphate [5]) [s⁻¹]
C50G G59U C70U	4.6e-05 ± 2.1e-05	9.86e-05 ± 2.5e-05	8.37e-05 ± 3.5e-05		
U55C G59C	< 1e-05	< 1e-05			
C11A C16G A36U G40A U55A U56A				< 1e-05	< 1e-05
G35A A42C	< 1e-05	< 1e-05			< 1e-05
G29U A52G C61G C68U U69A	4.87e-05 ± 1.6e-05	3.32e-05 ± 1.6e-05			
G13A G44U C61G U65A	< 1e-05	< 1e-05	< 1e-05		
U30G U55G C71U		0.00135 ± 0.00022	0.00316 ± 0.0014	0.00027 ± 5e-05	0.00591 ± 0.001
C11A C70G	4.84e-05 ± 2e-05	0.00013 ± 2.5e-05	5.3e-05 ± 1.3e-05	2.86e-05 ± 1.2e-05	3.06e-05 ± 1.1e-05
U46G U57G	< 1e-05	< 1e-05			
G38C A48U				< 1e-05	< 1e-05
G29C U69G	3.65e-05 ± 9.9e-06	9.83e-05 ± 1.7e-05	4.13e-05 ± 1.1e-05		
A42G U69C C71A			0.00647 ± 0.0028	0.000273 ± 0.00013	
G29U A42U A52U C67G	< 1e-05	< 1e-05			
G29C U47G C68G				7.83e-05 ± 2.3e-05	3.71e-05 ± 1.3e-05
G38U C58U C68A	7.38e-05 ± 3.4e-05	0.00022 ± 8.3e-05	6.21e-05 ± 3.1e-05		
G7U A48G A64U				< 1e-05	< 1e-05
U45C A53U U69C	9.96e-05 ± 2.7e-05	0.000489 ± 0.00012	0.000752 ± 0.00022		
A36G G44C A64C C67U				< 1e-05	
G9A C34A	< 1e-05	< 1e-05	< 1e-05		< 1e-05
C34A A42G G66U	< 1e-05	< 1e-05	< 1e-05		
G35U A36G A42G U55C	< 1e-05		< 1e-05		
G13A G43A C67A				< 1e-05	
G9U U31A C71U	< 1e-05	< 1e-05	< 1e-05		
A39C U65A C71G	< 1e-05	< 1e-05	< 1e-05		
A14U U47G C68G	7.2e-05 ± 2.9e-05	0.000125 ± 2.8e-05	5.08e-05 ± 2.3e-05		

Variant	self-cleavage kobs at 160 uM GlcN6P (glucosamine-6-phosphate [1]) [s⁻¹]	self-cleavage kobs at 640 uM GlcN6P (glucosamine-6-phosphate [2]) [s⁻¹]	self-cleavage kobs at 2500 uM GlcN6P (glucosamine-6-phosphate [3]) [s⁻¹]	self-cleavage kobs at 40 uM GlcN6P (glucosamine-6-phosphate [4]) [s⁻¹]	self-cleavage kobs at 10000 uM GlcN6P (glucosamine-6-phosphate [5]) [s⁻¹]
U30C C34U		< 1e-05		< 1e-05	
A36U U47C	< 1e-05	< 1e-05		< 1e-05	< 1e-05
U57G C58A G63U	< 1e-05				
G40U G60A C70A	< 1e-05		< 1e-05		
G9C C11U	< 1e-05	< 1e-05	< 1e-05	< 1e-05	< 1e-05
G35A G43A	< 1e-05		< 1e-05		
A15C A33C U55C	< 1e-05	< 1e-05	< 1e-05		
G32U U65C	< 1e-05	< 1e-05	< 1e-05	< 1e-05	
A39C U69A	< 1e-05	< 1e-05			
A14G G29C C61U C71U	< 1e-05	< 1e-05			< 1e-05
G7U G13C G35U G37A	< 1e-05		< 1e-05		
A12U G60U C70G	< 1e-05				
G32C A64G	< 1e-05		5.42e-05 ± 1.9e-05		
G9A G37A A42U	< 1e-05	< 1e-05			
C11G G37C U55A C68G		0.000386 ± 0.00018		< 1e-05	
G35U C68A	< 1e-05	< 1e-05	< 1e-05	< 1e-05	< 1e-05
C16G A39G A48G C58G A64U	< 1e-05	< 1e-05			
A6U U30G G62U	< 1e-05	< 1e-05			
U31C U45C C58A C61G C67G				< 1e-05	< 1e-05
C10G C11U G13C A36C G43C	< 1e-05	< 1e-05	< 1e-05		
A36G U45C	< 1e-05	< 1e-05	< 1e-05		
G9A A36G C67U	< 1e-05				
A33C U69C	< 1e-05	< 1e-05			
A12U U45G U46G	0.000419 ± 0.00015		0.00499 ± 0.0017		
G62A G63U C67U	< 1e-05	< 1e-05			

Variant	self-cleavage kobs at 160 uM GlcN6P (glucosamine-6-phosphate [1]) [s⁻¹]	self-cleavage kobs at 640 uM GlcN6P (glucosamine-6-phosphate [2]) [s⁻¹]	self-cleavage kobs at 2500 uM GlcN6P (glucosamine-6-phosphate [3]) [s⁻¹]	self-cleavage kobs at 40 uM GlcN6P (glucosamine-6-phosphate [4]) [s⁻¹]	self-cleavage kobs at 10000 uM GlcN6P (glucosamine-6-phosphate [5]) [s⁻¹]
G38C U69C	< 1e-05			< 1e-05	< 1e-05
A6C C16U C70U				< 1e-05	9.69e-05 ± 1.9e-05
G32A U55G G59C C70G	6.64e-05 ± 2.6e-05	0.000174 ± 6.5e-05	5.89e-05 ± 2.5e-05		
G32C C34U A36U C61U	< 1e-05	< 1e-05			
G32C U69A	< 1e-05	0.00639 ± 0.0029			2.46e-05 ± 1.2e-05
A42C U45A		< 1e-05	< 1e-05	< 1e-05	
C11G G37C G40A U45A C70U	< 1e-05				
A12C U30A G38C C61U			< 1e-05	< 1e-05	
A39U C61A	< 1e-05	< 1e-05	< 1e-05	< 1e-05	< 1e-05
A12C G37A A52G	< 1e-05		5.63e-05 ± 1.7e-05		
C8G U55A C61A				< 1e-05	
C8G U30G	< 1e-05	< 1e-05		< 1e-05	< 1e-05
A42C U47A	< 1e-05		< 1e-05		
C8U A33G C34G A36U U65C	< 1e-05		< 1e-05		
G29U G38U U55G			< 1e-05	< 1e-05	< 1e-05
C10U G44A U57C G62A	< 1e-05	< 1e-05			
G7C A39G C70U				< 1e-05	< 1e-05
U31A U46G G66A	6.92e-05 ± 2.9e-05	0.000303 ± 0.00015	0.000638 ± 0.00022		
A15G U30A U31G G41U				0.00015 ± 5.1e-05	0.000456 ± 0.00017
A12U A52C				< 1e-05	4.23e-05 ± 1.8e-05
A14G A53C	0.00202 ± 0.00065	0.00488 ± 0.0012	0.01 ± 0.0023		0.0384 ± 0.016
C16U U45C A48U C68U				< 1e-05	
G29C G59U C68U	0.000173 ± 8.1e-05				
A12U G38C A53G U55C C67G	< 1e-05	< 1e-05	< 1e-05		
G7U A15U G51U C61U C67G	< 1e-05	< 1e-05			

Variant	self-cleavage kobs at 160 uM GlcN6P (glucosamine-6-phosphate [1]) [s⁻¹]	self-cleavage kobs at 640 uM GlcN6P (glucosamine-6-phosphate [2]) [s⁻¹]	self-cleavage kobs at 2500 uM GlcN6P (glucosamine-6-phosphate [3]) [s⁻¹]	self-cleavage kobs at 40 uM GlcN6P (glucosamine-6-phosphate [4]) [s⁻¹]	self-cleavage kobs at 10000 uM GlcN6P (glucosamine-6-phosphate [5]) [s⁻¹]
G66A C67A C70U	0.000193 ± 4.7e-05	0.000467 ± 0.0001	0.000861 ± 0.0002		
A6C U31C	< 1e-05			< 1e-05	
C11U A42U	< 1e-05	< 1e-05	< 1e-05		
C11U G13U U49G	< 1e-05	< 1e-05	< 1e-05		
C10G A42G G44C A53G G60U	< 1e-05	< 1e-05			
C10A C16G	< 1e-05				< 1e-05
G35U G43A	< 1e-05		< 1e-05		< 1e-05
C16A A39U C58A U65A	< 1e-05	< 1e-05	< 1e-05		
A15C C34A G44U	< 1e-05	< 1e-05	< 1e-05		
G26U U31G G44U C50U			< 1e-05	< 1e-05	< 1e-05
U45G C61U G63A U65C	< 1e-05	< 1e-05	< 1e-05		
C50G U69A	0.000172 ± 2.9e-05	0.000587 ± 0.0001	0.000186 ± 2.8e-05	0.000132 ± 2.4e-05	7.99e-05 ± 1.5e-05
A12C G41C U49A	< 1e-05	< 1e-05	< 1e-05		
A12U G44A U65G C67U	0.000241 ± 6.5e-05	0.000969 ± 0.00016	0.00188 ± 0.00037		
A6U A12C A36C G38C C71U	< 1e-05	< 1e-05	< 1e-05		
G44A U45C A48U				< 1e-05	
U47A U65A	0.000347 ± 7.5e-05	0.00132 ± 0.00027	0.00331 ± 0.00064		
C11A G13C A53U C58G A64U U69A				7.02e-05 ± 2.7e-05	
A6U G13U U47A				< 1e-05	
A6C C10A	< 1e-05	< 1e-05	< 1e-05		< 1e-05
A12G A36G	< 1e-05	< 1e-05		< 1e-05	< 1e-05
G9A U31G C68G		< 1e-05		< 1e-05	
G41U G43U G51U	< 1e-05		< 1e-05		
G7U G37C G40A	< 1e-05	< 1e-05			
G37U G62A	< 1e-05			< 1e-05	
